Paper PMC7526519

Experiments:
Assay in all cases: SPR
[1] = biological target: Malayan pangolin ACE2 ectodomain fused with mouse Fc (Malayan pangolin)
[2] = biological target: little brown bat ACE2 ectodomain fused with mouse Fc (little brown bat)
[3] = biological target: alpaca ACE2 ectodomain fused with mouse Fc (alpaca)

| Substance | fold lower affinity than SARS-CoV-2 RBD to the same ACE2 [1] [fold] | fold lower affinity than SARS-CoV-2 RBD to the same ACE2 [2] [fold] | Kd [3] [µM] |
| --- | --- | --- | --- |
| SARS-CoV receptor binding domain (RBD), His-tagged (from UniProt P59594 306-527) (domain or fragment) | 4 | 40 |  |
| SARS-CoV-2 receptor binding domain (RBD), His-tagged (from UniProt P0DTC2 319-541) (domain or fragment) |  |  | 16.5 |
